Assay: soluble on expression in E. coli; label from the status in PepcDB or PDB records

Sequence | soluble on expression in E. coli
MVDSIIFDLDGTLWDSTEEVCKVWQDVLSEHKEIELSVTKDLFRSLMGLSFEEIANRLFPNLSEEERMNLLNECSLKECDYLSENGAKLFDDIEDTLKLLSKKYKLFIVSNCQAGYIESFLKAHKLEQYFIDFECPGNTGLHKGENNKLIIERNKLINPIYVGDTQGDANSAKFVGIPFIYAKYGFGNVDVYDYFIDSFKDLLEHDILK | not soluble
MTMHREPGGERYYYTWAWFEGPDDAAWRVTGHHTDSGEQYRLDWNLAERSLCVTDSLGRTRCHWWDAQGLVTAYRDEAGQMTTFRWSDEERLLLGMTDAQGGKWRYVYDRLGHLTETHDPLGRVEQTQWHPVWHQPETEVDAAGAAWRYEYDERGNLQAVSDPLHQRTVYGYDRHGQVVRITDARGGDKYLQWNEDGQLMRHTDCSGSQTAWFYDERTRLERVTDAESNSTRYSYDGNGHLTEVMFADGRTERYQPDAAGRLVKYTSPAGQITRWQRDGQGRVRRQTDATGRRTAYEYDAYGRLTTLTNENGESYRFRYDVLDRLTEQTDPGGSRRAYGYNALNAVTAVIYGGERGGEIRHGLERDAAGRLTAKTTPETRTEYRYDAADRLLEIRRRRHDAAEGGEPEVIRFSYDSAGNLLSEETAQGVLQHRYDVQGNRTETQMPDGRTLRYLYYGSGHLQQINLGRDVISEFTRDHLHREVQRSQGRLDTRRMYDRTGRLTRKPTCKGMRGVVPETFIDREYAYSGQDELLKKRHSRQGVTDYFYDTTGRITACRNEAYLDSWQYDAAANLLDRRQGETAQAGAGSVVPFNRITSYRGLHYRYDEYGRVVEKRGRNGTQHYRWDAEHRLTEVAVIRGSTVRRYGYVYDAPGRRVEKHELDAEGKPYNRTTFLWDGMRLAQECRLGRSSSLYIYSDQGSHEPLARVDRAAPGEADEVLYYHTDVNGAPEEMTDGRGNIVWEAGYQVWGNLTHEKETRPVQQNLRFQGQYLDRETGLHYNLYRFYDPDIGKFISGDPISIRGGINLYQYAPNPIKWIDPLGLYNGEGQRELGKYHVFHEHNLDITEYGLSDAEHFSRGNQAIYERMKNDPAFRREMQTKYPGVVEHVQPSSGGKFSTESPPGLTWHHENKPGVLSLVDRLDHKTYLEHHHHHH | not soluble
MGSDKIHHHHHHVTTVTRSFDDAWRRWIAENLLLDAPPSALHGALLGHGFDAADVTREIEAALASPYFHGAARLRNRLRKREWILSVYSELNRMRAASGVIERCERLSRDAFFEQYYFQNRPVIITGAFDFWPACSRWNWDYLRRQCGDCEVEVQFGRESDANYEINQPRLTRMMRFADYVDLVEQRGPTNDFYMTANNTSRNRAALAALWSDVPPIDAYLDAASPDTGFFWMGPAGTKTPFHHDLTNNFMAQVIGRKHIKLVPLSDTPYMANHLHCYSRVDGGAIDFDSFPSMRQAQLIECTLAPGELLFLPVGWWHYVEGIDASVTMTFTNFLRSNDFSRRYDTYHEL | not soluble
MGSDKIHHHHHHMRSMTDVRRYWISLLRKICEMPLELCASDRLKKSMPVEGKKSEERRKFTHLELLGRIFCGISPFLELNRESPSTDPEERKIATRLSEFAVKSLDVATNPNCKDYMNFKEGRQPLVDAAFLVEAILRAPKVLWEDLDVSTKKRLIRELKATRKIEPYFSNWLLFSAMIETFFFFAGEEWDSTKVDLILKNVESWYKGDGAYGDGPFFRWDYYNSFVIYPMTIDVLRIISEEKTEWKELYVKVLRRAQRYAVVLERMISPEGTFPIIGRSITYRTAVFHLLSQLSLLHLLPASLSPAQVRCALTAVLRRIFENPSTFDENGWLKIGVIGSQPSLGEEYITTGSLYLCTTVFLPLGLPTSDPFWRDPCKKWTNKKVWEGEDVAPDRALED | not soluble
MSLGAIVEVITIKNYSLKSENYEAEIDIPKIRGLKDKNLEQRLNSSFMEDGKRLYHQFQERMEKIQSSKNKGYKSLSLSYSVKNNSKKFLSIEMTKNEIEASSYVSKVHYTIDKKRQIVLTLPMLFKDDKYIKVISDNIKEQMREQMKKDSTKSYFIDEGHHHHHH | not soluble
MPKIISKRKFNILRKTKEEIFSQIVYTKKRNGLHKAAKEYYFKDKDFTIIEDQQDRPDKPEELDTPDIPKPPKPPKGPDQPEEPGQPGGPDDPNSGNKKMPKPDEFVTHRQLQEFKKDLLVELHEIFPTKPELKRVEEKVDVLFELQKAQGEQIRIQGEQIKELKVEQKAQGETLQLILQTLQKMNDRLDKIEGKMDKMESRMDKMETRLDKLESKLEHHHHHH | not soluble
MGQCLGTLCTVDSATDNISSVYQLAGPVAVKESPRIAERDPKVKISVNPEEENVERPCVLYSKSNEIIKKPDIFEEIYKRTPITLSNNGRIDVAELPAGQRVIEVENNEVRDKYKKTLYEIRRKCRELQNLGAEDEETGEIIDTLLILYKDFFLLTTWKIDKYAQLRKNAAVQAYNSLPKLRADPAEFRCHVEFQYRVANELWEHFKETYIHKYEACNWAERAKVKEWDLLDSQVQTPNVEWDYLGAHGYI | not soluble
MGSDKIHHHHHHMTSTLPVPEPHQSDSANTDANSLSWEEELDSAIFSFEDIQTELNYKQAQTALRNLVANLDLTPQEKTGLETEIADLETMLGKLDRMVVQIAAFGMVGRGKSSLLNSLVGQTVFETGPLHGVTRTAQTVNWSISEEAIGETERALRVTLPGVGQSQVKLIDTPGLDEVDGATRAVLAEQIAKQADLILFVISGDMTKLEYAALSQLREAGKPIILVFNKVDQYPEADRMAIYHKIRDERVRELLTPLEIVMAAASPLVKTAIRRPDGTRGIQLRTGNAQVEELKLKILEILHREGKALVALNTMLYADVVNEQLIERKLMIREQNANQLIWKAVMTKALAIALNPVTVVDILSSVVIDIALILGLSKLYGFSMTEAGAVQLLQKIALSMGGIGASELLANLGLSGLKTLLGISATATAGVALGPYISVAVTQGGVAGVSSYGIGQVTKVYLANGATWGPDGPKAVINRILANLDETSILNRIKDELLHKVRLRK | not soluble
MRKSRLSRYKQNKLIELFVAGVTARTATEPDSIVYTDCYRRYDVLDAGEFSHFRINHSTHFAERQNHINGIGNFWNRAKRHLRKFDGIPKEHFEPYLKECERRFLEHHHHHH | soluble
MAQVKAEYDFQSQPNTGELSISAGEVLTVIRENIDGGWIEGRNVRGSVGLFPESYVTPYQASRPPPVLPPPLPPTSSGPPAASSRPFDDWGGASEVAAPPSYGAQHHHQPTPSVPEVTRSSYPSQNDDFDDEWTDEDDEQEPTRPNVQSSIGSNSRRDLSRSHSEHGGPDRGSNKVNKNINRFSNFVKSGVEAYVIGESKTTSQISERHEVVMNNGIIQWKPIQQYYTCIVDKPKKESKLKGLKSFIAYSITSSLTNIQRQVSRRYKHFDWLHEQLSAKYVLIPIPPLPEKQVAGRYEEDLIDHRKHILQLWVNKICRHPVLSQSEVWLHFISCTDEKDWKNGKRRAEKDEYIGGAFLNCITVPHQPLDPNNVDMQVERFQRSVKTSEEAMRVMQERMNMFQKVFAGPVKQNWQKMGSAFKTLQQSFEIDETVASRRLTEALAYTASEYHEIGQVFDAHTKNDMEPVLENLYSYKGTVQNVPDIIQVHKQAVQKFRDSEGRLSSAEAEKMKQRIDAMSYTVIAEVQHQTAEKVEDMKSTMGTYLKKQAMFYQEVATKLTSLAARYD | not soluble
MPERLSRMSKKHKMVWGTLNGLDDWDYNVFELQAAIDGDDINCKNDQSGCGALFITMYALVVKYGFLRKFEINERIFLNWLSAVEGGYHANPYHNSMHAADVLHITHYLLSKGGLAELCKLNDRQVLAALFAAAIHDYNHPGINNNFSILTQTYNATLYNDRSVLENMHVASVFELMRNPALNILACFSEEHWRDFRNTVIDMVLATDMSLHEKYMTQFKRRLSEKRPFTEDCDQNLALAMALKLADISNCCRPLPLYLKWSERVSDEFYTQGDRERSLGMSCSPFMDRQTPMIAEGQTSFINYIFIPFLEVMAEFLPSMGFTLGLAAVCKSHRLVG | soluble
MSLGNAMNITSCISQSECSCQLSESTSDTNSNSSFKTRSLGYDRSSQSLSISDVELGFKSVTETSSNNYRLRRIIESNDFFKDVMYKFFLLRENSLVLDQSKSYYSDKDPHYSIICSDYYVFALRRILIEGHHHHHH | not soluble
MSLILCIDVGNSHIYGGVFDGDEIKLRFRHTSKVSTSDELGIFLKSVLRENNCSPETIRKIAICSVVPQVDYSLRSACVKYFSIDPFLLQAGVKTGLNIKYRNPVEVGADRIANAIAATHSFPNQNIIVIDFGTATTFCAISHKKAYLGGAILPGLRLSADALSKNTAKLPSVEIIKTESVVGRSTIESIQSGVYYGVLGACKELIQRIHHEAFNGDQILILATGGFASLFDKQGLYDHLVPDLVLQGIRLAAMMNTAEGHHHHHH | soluble
MLSKSLALGRRLTKISSSVKSISSITFKTVDGKPRDALTIHNVDFVIDPDEKMVDEYMKVYGNQRFNFKRNDIDIWRKSFKDSYSLWLVCLKGTNKIVQMSHVLNFPPLLSHNDILHQYHGFFWVDPDYRGKDSMAIMDYIEKHRARNQSDNDAGTFLTTAVTMWTKMHGHADYKHIMYVSYYKPDEMQIPEDLNLDGIFLKNATEVPDMDIVKYDNTVFPYERSKYMLNLLRDPEGFGKVAYDNNGKVIGFGNVIIYPSGECVLTPLYADDSKVAQAIFKSILKEIPLNDKKLLRFQIRSIDQCEGGFEWIQPFVKNPIRKEIMGHMAGSSHPPTVNYKKTYANTPYTTCVI | not soluble
DPSVVLQMAEGPATYEQAPAGAPPANDPQARFVAKVLGETEDTWGAIFTQSLNRNYVPPKLVLFRGATPTACGTGQAAMGPFYCPGDSKVYIDLGFFDEMERRLNAPGDFAQAYVIAHEVGHHVQHLLGVSEQVDRLRQRNPAQANALSVRMELQADCFAGLWARRADQARNILESGDIEEGLNAASAIGDDTLQKKSQGYVVPDAFTHGSSAQRVRWFKRGLESGDLRQCDTF | not soluble
MNPGGAEVSVVIPAWNAEATLGRALASVRAQTLAPRQVIVVNDGSSDATPEIAARMATKTFPVTVIDRTGRGSGPAAARNAGIAAAGEPFVAFLDADDVWLPDKLARQMAALRASPDAVLCCCDAQWVGEDAPARTAHPTIYEDRPIKGGAEAWKEILLDCYVGTPCVVARRAALIEAGGFDERLVVGEDQDLWIRLALQGPVIALPEVLVRYGLSADSHMARHRALAASLWLPHFEALVSGLGARLSAGERDAILRARLWRMARSVYLDGRKDLGLSLMARAVAHGLPRRARMVFLARARLRSALGRNGLEHHHHHH | not soluble
MSDPRPVVARCEGMFPADLARYEAQRTRKGGDLGHIDASRSHLNRPLLGEADWAKQAMAEIEAMRAENYADELEALQRRGRKKEIQKRMVEGPKDPWRASRHGPLREIILTAHKDWFNEIVFDGNRMDFAARERAFEDRAVAWLQQTFGDDIVHARADLDETTYHIHAVLVPRAVVKVNGATRRMLQPSIHPLIEDYEKLQDSVGAWFSAIGLARGEKRAEAIREAAAKGDPIPKKRHHCRPSDWRRRQEAEVIRQRAEVEAREAATAETAAALDARRADLAHHEERLAAEDARLSAVAATRRAEAGRLDHRVEAVVARETVADERMAEADAVLAVAEGPGAGAFDIDDAGGTPMLTERPENPSLLARLKRPVAGSDRGRARAVAALGAAWTRLRKAAGEAAEARLAREHEDLRKADEALLEVARTLPETARERIARARPTIARSLTGIGLTLRRLRGRDGGAQRDESGTGEKLEHHHHHH | soluble
VPGTVEVVFDKPEYRTGEEASALITFPEPVEDALLSLERDKVEATALLSKGADWLRLEKLNPTQYRVWIPVREEFSPNLTFSVLYTKGGDYSFQNAGIKVGMPQVEIDIATDKERYEPGETVTVTLATRFAGKPVSSHLTVSVVDEMVYALQAE | not soluble
QKPKLLYCSNGGYFLRIFPDGKVDGTRDRSDPYIQLQFYAESVGEVYIKSLETGQYLAMDSDGQLYASQSPSEECLFLERLEENNYNTYKSKVHADKDWFVGIKKNGKTKPGSRTHFGQKAILFLPLPVSSD | soluble
